Data reported in article PMC1865072 (Nucleic Acids Research, 2007).
Read-outs that look alike come from different tables or passages of the source.

Experiments:
Assay in all cases: native MS
[1] = target: 15N-labelled Kis antitoxin (Killing suppressor) of the parD operon of plasmid R1 (Escherichia coli (plasmid R1))
[2] = target: 15N-labelled Kis antitoxin (Killing suppressor) of the parD operon of plasmid R1 (Escherichia coli (plasmid R1)); remark: listed apart in the source
native MS = target: the molecule itself

Chain of 15N-labelled Kis antitoxin (Killing suppressor) of the parD operon of plasmid R1 (Escherichia coli (plasmid R1)) (P13975 whole entry): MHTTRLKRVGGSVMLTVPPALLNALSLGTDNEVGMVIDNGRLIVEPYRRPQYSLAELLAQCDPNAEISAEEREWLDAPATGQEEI

“15N-labelled Kis antitoxin (Killing suppressor) of the parD operon of plasmid R1 (natural protein)” was tested, and the stoichiometry N (subunits in the oligomer) [1] was 2.

Molecule “Kid toxin (Killing determinant) of the parD operon of plasmid R1 (from UniProt P13976 24-133) (natural protein)” has a stoichiometry N (Kid per Kis (2:1)) [2] of 2, a stoichiometry N (Kid per Kis (2:2)) [2] of 1 and a stoichiometry N (Kid per Kis (4:2)) [2] of 2. For the same molecule, the stoichiometry N (Kid per Kis (4:4)) [2] was 1, the stoichiometry N (Kid per Kis (4:6), on the 30-bp parD DNA) [2] was 0.67 and the stoichiometry N (Kid per Kis (2:1)) [1] was 2. For the same molecule, the stoichiometry N (Kid per Kis (4:2)) [1] was 2.

B1: Kid toxin (Killing determinant) of the parD operon of plasmid R1 (natural protein)
chain: MERGEIWLVSLDPTAGHEQQGTRPVLIVTPAAFNRVTRLPVVVPVTSGGNFARTAGFAVSLDGVGIRTTGVVRCDQPRTIDMKARGGKRLERVPETIMNEVLGRLSTILT
B1 was tested, and the “stoichiometry N” value (native MS) was 2 subunits in the oligomer.
